Source: article PMC3793302 (Developmental cell, 2004)

Target: the molecule itself
Experiment: cross-linking

B1: C-TSK-Myc-His expressed in Xenopus embryos (natural protein, chick, UniProt Q65Z91 20-369, looked up)
chain: KTCFPGCHCEVESFGLFDSFSLTKVDCSGIGSHIVPVPIPLDTSYLDLSSNKLETINESMLTGPGYTTLVSLDLSYNNIAKISSTTFSRLRYLESLDLSHNSLEVLPEDCFSSSPLGDIDLSNNKLLDIALDVFASKGQGKPLNVDLSNNMLSKITRNHEKSIPNIQNLNLSGNRLTSVPNLQGIPLRYLNLDGNPLAKIEKGDFKGLKGLIHLSLSGLHDFRELSPYSFKELPALQVLDLSNNPNLRSLTAEVIFGLNSIQELNLSGTGVSSLPKTVLKYLPSLKSITLRKNIQCFKTIKEGQYHRQIGLTKLGLGAEELLWCKTPCPRPVCRCRDKPLQSAPQNLPTP
  stoichiometry N: 2
